Source: the domain aggregation screens of Martell et al. (2025)

Assay: soluble fraction after stress (log2 fold change); higher = more stays soluble; pooled small domains, quantitative proteomics
Details: stress: 50 degC
In short: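 Pooled custom libraries of small protein domains were each held under stress at 50°C. The read-out, high-throughput quantitative proteomics, tracked how much of each protein stayed soluble. This is reported as a base-two log fold change used to indicate aggregation propensity. Higher values mean more protein remains in solution.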

## HMDLIFQKGDLVFSTEHNQRGIFYEYLEQGQAKISIEKQFFVVAARRLQLLTKREVLYPAGYDLDQLFV
  soluble fraction (log2): -0.0465

## HMPMDDETWDALSLFAYKRYARENGWPLMIGAEALRDTFASYFPLDSSTWQDRSSHYLTYQDGIYTRT
  soluble fraction (log2): -0.53

## HMKSTPMYATAIVNIRSKAGTDSEILGKLNPSEEISVISSENGWSKVSYNGKEAYISSNYLSNAKP
  soluble fraction (log2): -0.175

## HMPNFDPSYILDFGDVIQLQLVGQKNQILEIPILRDGSVNLPDIGKIFLSGMSLEEATKIIKDTYSA
  soluble fraction (log2): -0.679

## HMARYSMLEEQLLQLINKHGTMSTPKLVEATGAPRSTVTYQLRKLLESGTIERTQPARSPKQSYRIKS
  soluble fraction (log2): -0.238

## HMEREQNIAQGREVVQRELKRLGLTDVFTVEDIGRALKFDDIDEFLSKVGFGDIQTAKITGAIALMQQALR
  soluble fraction (log2): 0.0611

## HMIKIEDILNVESVELSDSEYKKFLNGILINVKNLENGWAKVYSGNEFKGFGIVDKNLLKRKIVID
  soluble fraction (log2): -0.426

## HMAALKVAVLTVSDTRTQETDTSGAFLEGALREAGHEIADRQIVIDDVYQLRAIVSQWIADPEVEVILT
  soluble fraction (log2): -0.217

## HMRTITIDDSIAGKRLDEALTLLGAESSRTKVKLLFSSPNGVLVNGEKEKPHYRVEAGDVIQFGELPKK
  soluble fraction (log2): 0.271

## HMNMPDVTVEWVKEQQAKFGLTDSDLAKSVNIDNANLARIFNQRGLTKIHKALFYYFFRAYGLQ
  soluble fraction (log2): -2.4

## HMGNQALSSVLSDIAGIGPVKTKELLRVYPDLDSLRQAPVEEVAKVKGIGRQLAQKIHDHFSSR
  soluble fraction (log2): 0.189

## HMDFSSRLKDERKRLKLSQAQLGEAGGVSKDAQLNYENGSRSPSASYLELIAREGVDVQFLLTGKRS
  soluble fraction (log2): 0.0732

## HMYSDERLQTFMELLPFFVEELSNKHVTRYNVWQNYREAYPNGYGRSQFFFHLGQNLEAKKK
  soluble fraction (log2): -1.17

## HMGYKDIDKLSGVDLAIYRFIVEHDEQIPYMRVRELARGAHVSNSSVMRFIRKIGYDSFPEFKVSLRS
  soluble fraction (log2): 0.0102

## HMQPMIQIHTLANHAPVALHIKRNTQRNIIIRARDASSLNLSIPKWFSPAQLQNWLRDNEATLIRILQQAP
  soluble fraction (log2): -2.49

## HMPNPSAGRVHIDALLPFDRVEVTDMQGSLLLDHSFSPRRAVDLDLNARGTLLYTLWSKGHLLGKGRVVR
  soluble fraction (log2): 0.0169

## HMTGWINVDKNWYYMNNSGSMARGMINVNNVSYYLDENGKMLSNTTVNVNGTDYRIDASGAMSQI
  soluble fraction (log2): -0.564

## HMKRKAIDQSWQPDKEAIEILSKAGVNEEFIKEEIPEFILYWSEKGEESDTWNSKFIAQVRRQWAKTQH
  soluble fraction (log2): -0.0567

## HMISTVFYVDVKGEVHHPGVYQMKAENRVKDLIEAAGGFTPLADDQKLNLAQLLEDQMVIVVPKKGEEV
  soluble fraction (log2): 0.278

## HMANKLTSTNLAKQHKMGLSEMYAELMNSGYLIEKDGKYELTPLGISIGGESKPNRYKKGEFYFLWPSDIS
  soluble fraction (log2): -0.29

## HMRSVLSDEIYLLIRKMIFNYEILPGAKVNIDALAKKLDVSQTPVREALSRLESDGLIVKEPLKGFRATD
  soluble fraction (log2): -0.875

## HMEDDRLIQNLLLTAKNLVMDVGRMDESALAENEDTVRTAMLFALGYLYENRSNPDYHKLTLNLRSILFA
  soluble fraction (log2): -0.493

## HMKGVTVDGDNITVDGEKQTLISVNKNLDGDVVSYTYRTADGKLRTSRNVEVAQEINKQQLLKSIDAQ
  soluble fraction (log2): 0.0821

## HMDIVIPIQVKNVSSGEVLDFPSIRAAARDLKFPKTTISLGVRYAGEKAYKGFVMRYRSDDPWPIVQES
  soluble fraction (log2): -1.93

## HMRSHLSANLQRLRHIAGLTQKDLALAANLPRATLASLEQGEANPRLDTLLAVASALQVGLDELIAAP
  soluble fraction (log2): -0.866

## HMRISLKAQVYEYLKQAIINGDLKVGEIYSEQYFADKLSISRTPVREAILQLQHENMVEVKANRGIIVK
  soluble fraction (log2): -0.472

## HMDVFTAKTASHIQELREKLGQQAVFGRSDVQNALGLKATRSSALLREMAEHGIIEPVTGYGKGRYHFRS
  soluble fraction (log2): 0.225

## HMIQTKKVTFTVEPTVNFEKINISGIEFKINSGSSITAIYEKNSHNFDEVLDFLKQKGVKILDIVTED
  soluble fraction (log2): -0.118

## HMRKEEFIRELVLELKQNVSEQVILEQKRFYEEYILTEVRGGKTEEEVIASLSEPRLLAKSIIDAAEAGGD
  soluble fraction (log2): -0.155

## HMTEDIAVRILEFLEDNNGFYALNDKTPSEKIHDLFGVSKKKFKIALGGLYKQRLITVSDAGVTLVK
  soluble fraction (log2): -1.29

## HMQMEDTDALLQVAKEVVAENQDTVEAYLGGREKAFASLIGAAMKKTRGKANPKVIRQLILDLIQ
  soluble fraction (log2): 0.254

## HMDADTVGQIRVVKQILDDGRLIVVDASGNPVLVRRSSALSLTAISQGDRIIVDPSVRLAIELLPNE
  soluble fraction (log2): 0.185

## HMVITQVSTTQTDTTFQYHKVKPKETLFSISRLYEVSIDEIKTINPALNSRELMAGELLKLPIK
  soluble fraction (log2): -0.0212

## HMTVEVFQSLVQTFREMSPRKAASILEELKRDLAVEILLHMPEDGVAAILARMDPARAARLTEQLALEKD
  soluble fraction (log2): -0.979

## HMENLIEELTAKNKEYIHSVTKQLILVGKSDEEVKEILNDILPQIIEGQKSGIIARKLLGAPTEFVSQYQP
  soluble fraction (log2): 0.011

## HMKGMIKVASMSLGADLGLYSRHLKYLGIVHRVVEESGGQSVYIQKLNDLHTAKESLELYLKNELKI
  soluble fraction (log2): -1.19

## HMEITGKYKAKEDIKLKVIPLISSLDLQDIKQNTELEVKDTMNNWAYVTVQEKQGWVVLEKIEKVE
  soluble fraction (log2): -0.0549

## HMSETIVFGQQKAINTLSSEAGLSSAELNNYLKKRYQRPLFQLTVSEGADLIQGFQDGTLTKASITQYVSQ
  soluble fraction (log2): -0.0548

## HMTVDTSELEEMIDDLIKEHPNEWERYSSGEKKVQGFFVGQVMKATSGQADGKAINQILSKRVKS
  soluble fraction (log2): 0.354

## HMDTSADEVKQLIASFVEQEDKRKPLSDQKIVELLAEKEQKISRRTVAKYRDALNIPSSSKRKRF
  soluble fraction (log2): 0.0434

## HMSVLQGLIESFKAGDRNLYEVAERLNVTEPFLAEALKDYRARFPKGVQVDNFWISFRPYLTIAEV
  soluble fraction (log2): -1.41

## HMAKIDSRKALIDQLTTTFTRAQLEELITKNELSTDARFFLSQWNAKGWIRKTAKNVYEKLR
  soluble fraction (log2): -0.134

## HMDAEVEHLFRIIAELKEKNVAIIYISHKMDEIFRISDDITVYRDGEYIATDRAENLNVDKVIQLMVGREV
  soluble fraction (log2): -0.339

## HMQTTITITNTVTGQKAQFPPPFNPMSLSKIGVDETFEKEVFVDGVDTFGYGLDGYLTFYELKDFLRSYQ
  soluble fraction (log2): -2.5

## HMTENIPPVKIEEMRQKWQDIVLLHGVTSGRKIKSGQATYIWLYRNDQNWLLTFNSRHLSQPQV
  soluble fraction (log2): 0.145

## HMNADAPWSPFSPGFTGPMNRPVIGLVTKADLANPQRISLVESWLVQAGAQKVFVTSALENTGVDEMFIFL
  soluble fraction (log2): -0.124

## HMQAPVVNHDLIKSFERQWREIKATAKGKVRSVNLSDARSILQSFLNTLQKGPGTDSLISSVQNELSLIA
  soluble fraction (log2): -0.00186

## HMAEKEYYYATDALNLRQGPGMEHTVKGEVVLGERVALLGLEGKWAKIQNAQGTTGYVFSAYLAPS
  soluble fraction (log2): 0.0931

## HMSNLNHSFQYKKNIGRKISLTYLGRDNESISKIYELIDSNDSGILVKNKNVEIFIHYEKIVSAKIKVS
  soluble fraction (log2): -0.943

## HMSYTPGQWVEASMPNATFFRIVPSGNATADKMLAVATPMKVISTSGTYVKVELDSGDVGFVPEIMV
  soluble fraction (log2): -0.46

## HMTHPAHLARIGALIRSARQHEGLTQAQLAELLGTSQSAIHRIEQGGQNITLDMLTRISAALDSEIVTIG
  soluble fraction (log2): -0.921

## HMDRETEEYELIRAKLEWLYQKQTGTIRNQTAKILHHLEIAKEEGNYYLYLKIKEEAKQWLVQASMYLD
  soluble fraction (log2): -0.231

## HMTESFEFTMNDLVQNNLIMGSGAKERRIAVGEALGIGYTNAKQFLSRLNHYGITRKEFDDEIEKVNQN
  soluble fraction (log2): -0.158

## HMASATGVVTAASLNVRSGAGTNYSVVNTLAKGTKVTVLNTADGWYEIEATVNNEKITGYVSATYIAMD
  soluble fraction (log2): 0.222

## HMIMTEKEKKLLNRYIMHDTIHKLYHEQNKSMRWIADNLGINFRTVQKYLDMDSGEFQKYSESISNR
  soluble fraction (log2): -0.48

## HMRNTPQRRHAILALLSEQGEVSVDALAKRFSTSEVTIRKDLAAMESHGLLLRRYGGAVPMPQELI
  soluble fraction (log2): -0.928

## HMEDTVNVPIQINGKLRHVIQVQIGTSEEEIQKIALSEEQVKKFTDGHEILKVMVPKGKLVSIVI
  soluble fraction (log2): -0.129

## HMVPVVGTTIPHEFIGKFGSARVMLKPAVEGSGVIAGGSARAVLELAGYKDIKTKVLGTNNPRNVVYATMN
  soluble fraction (log2): 0.0414

## HMNIGVEQIEQMERGALITLWQELIDKPLPRHMSIVFLRQVLAFEVQSKQNGGLPRGFITLLNKQAD
  soluble fraction (log2): -0.824

## HMDVLSPEEWIEFRTAYNNNRYISQYGSKGATIEDDYATRLAMIGGKESYYFLNDPRWTEPGYGNLK
  soluble fraction (log2): -0.437

## HMSDEVNTDKAFRAIDSTLNRNVKGIAPRDHTLLRNTMITYFKSNDYIDYDTMIQSTLENYKPTELEQDKM
  soluble fraction (log2): 0.165

## HMDDFVEIDGKKYEIDMSFDNILRLFDLLKDKSLNDVTKIETGLIMLIDDSLDDYDTEEKADIFVQIF
  soluble fraction (log2): -0.0316

## HMRKPISQEIVDEVLKLAKNNPDWGYDRIAGVMKYLKYDVSATTVRHILDDNGIVPDPERRLR
  soluble fraction (log2): 0.333

## HMGLPLETVVTHATKLEIVRDGRVSGSIGLSAGVKVDVIALEGDNLQVRYRSLSGRVPVAHTGLAALA
  soluble fraction (log2): 0.105

## HMDLEMLEVEDTIKDLLSQHQKINAIKYYRNYMSEQLNVDMGLRQAKDTIDAIGRGATVDLSVGY
  soluble fraction (log2): -0.0705

## HMADGDIIPEGQRDATLASLAGSMRARGMTEAEILAALQVTNETRVRPPMALADLERIARSIGRYEPGK
  soluble fraction (log2): 0.0818

## HMLAFDKDDSGAVAEIILVLGRYWMDFSHKKYPAAEGVALRHKGLSHIFTVLRPYLSTPASELIGERLRR
  soluble fraction (log2): -0.409

## HMAALTADEAKQIALKHAGVAESDVQRLKVEQDRDDGRLLYEVEWDVGRTEYSYEIDANTGDILNYEKDV
  soluble fraction (log2): 0.254
